T1: Transmembrane-4 L six family member-1 (TM4SF1) (human, UniProt P30408 1-202, limits assumed)
T1 construct: also called hTM4SF1; human TM4SF1
T1 sequence: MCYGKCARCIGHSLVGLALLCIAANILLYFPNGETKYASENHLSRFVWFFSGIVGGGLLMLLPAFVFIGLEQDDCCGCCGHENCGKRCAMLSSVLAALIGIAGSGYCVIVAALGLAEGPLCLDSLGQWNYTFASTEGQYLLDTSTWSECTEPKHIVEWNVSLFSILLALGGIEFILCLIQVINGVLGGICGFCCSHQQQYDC


Target: T1, Transmembrane-4 L six family member-1 …
Assay: antibody screen (method not described in this filing)
Conditions: not given

Molecule	binding result
monoclonal murine antibody AGX-A05 (antibody, V domains shown, Murine monoclonal antibody) VH: EVQVQQSGPELVKPGASVKMSCKASGYTFTSYVMHWVKQKPGQGLEWIGYINPNNDNINYNEKFKGKASLTSDKSSNTVYMELSSLTSEDSAVYYCAGYGNSGANWGQGTLVTVSA VL: DIQMTQSPASLSASVGETVTITCRTSKNIFNFLAWYHQKQGRSPRLLVSHTKTLAAGVPSRFSGSGSGTQFSLKINSLQPEDFGIYYCQHHYGTPWTFGGGTKLEIK	binds
monoclonal murine antibody AGX-A04 (antibody, V domains shown, Murine monoclonal antibody) VH: EVQLQQSGPELVKPGASVKISCKTSGYTFTDYTMHWVRQSHGKSLEWIGSFNPNNGGLTNYNQKFKGKATLTVDKSSSTVYMDLRSLTSEDSAVYYCTRIRATGFDSWGQGTTLTVSS VL: DIVMSQSPSSLAVSAGEKVTMSCKSSQSLLNSRTRKNYLAWYQQKPGQSPKLLIYWASTRESGVPDRFTGSGSGTDFTLTISNVQAEDLTVYYCKQSYNPPWTFGGGTKLEIK	binds

Further lines, results first:

binding result	Molecule
binds	monoclonal murine antibody AGX-A07 (antibody, V domains shown, The humanized A07 variants (A07-YTEC etc.) used in the ADC killing assays are different molecules and are not entered) VH: QIQLVQSGPELKKPGETVKISCKASGYTFTNYGVKWVKQAPGKDLKWMGWINTYTGNPIYAADFKGRFAFSLETSASTAFLQINNLKNEDTATYFCVRFQYGDYRYFDVWGAGTTVTVSS VL: QIILSQSPAILSASPGEKVTMTCRANSGISFINWYQQKPGSSPKPWIYGTANLASGVPARFGGSGSGTSYSLTISRVEAEDAATYYCQQWSSNPLTFGAGTKLELR
binds	monoclonal murine antibody AGX-A09 (antibody, V domains shown, Murine monoclonal antibody) VH: EVQLQQSGPELVKPGASVKMSCKASGYTFSSYVMHWVKQKPGQGLEWIGYINPYSDVTNYNEKFKGKATLTSDRSSNTAYMELSSLTSEDSAVYYCARNYFDWGRGTLVTVSA VL: DIQMTQSPASLSASVGETVTITCRASKNVYSYLAWFQQKQGKSPQLLVYNAKTLAEGVPSRFSGGGSGTQFSLKINSLQPADFGSYYCQHHYNIPFTFGSGTKLEIK
binds	monoclonal murine antibody AGX-A08 (antibody, V domains shown, Murine monoclonal antibody) VH: EVQLQQSGPELVKPGASVKLSCKASGYTVTSYVMHWVKQKPGQGLEWIGYINPYSDVTNCNEKFKGKATLTSDKTSSTAYMELSSLTSEDSAVYYCSSYGGGFAYWGQGTLVTVSA VL: DIQMTQSPASLSASVGEPVTITCRASKNIYTYLAWYHQKQGKSPQFLVYNARTLAGGVPSRLSGSGSVTQFSLNINTLHREDLGTYFCQHHYDTPYTFGGGTNLEIK
binds	monoclonal murine antibody AGX-A03 (antibody, V domains shown, Murine monoclonal antibody) VH: QIQLVQSGPELKKPGETVKISCKASGYSFRDYGMNWVKQAPGRTFKWMGWINTYTGAPVYAADFKGRFAFSLDTSASAAFLQINNLKNEDTATYFCARWVSYGNNRNWFFDFWGAGTTVTVSS VL: DVLMTQTPLSLPVRLGDQASISCRSSQTLVHSNGNTYLEWYLQKPGQSPKLLIYKVSNRLSGVPDRFSGSGSGTDFTLKISRVETEDLGVYYCFQGSHGPWTFGGGTKLEIK

Test system: not given
Assay: not given
Conditions: treatment with CA4P; cited from earlier work

Molecule	Patients who experienced heart attacks while being treated
COc1ccc(/C=C\c2cc(OC)c(OC)c(OC)c2)cc1OP(=O)(O)O [CA4P, Combretastatin]	seven
